Biological target: Citrobacter sp. RHBSTW-00271 Ubl3 (Citrobacter sp. RHBSTW-00271)
Assay: SEC-MALS

“Citrobacter sp. RHBSTW-00271 Ubl3 (domain or fragment)” showed a stoichiometry N of 2.

— publication PMC11601603
